In paper PMC8257531, “ARL15 modulates magnesium homeostasis through N-glycosylation of CNNMs” (Cellular and Molecular Life Sciences: CMLS, 2021):

B1: CNNM2BAT (domain or fragment, UniProt Q9H8M5 429-584, looked up)
chain: KEELNIIQGALELRTKTVEDVMTPLRDCFMITGEAILDFNTMSEIMESGYTRIPVFEGERSNIVDLLFVKDLAFVDPDDCTPLKTITKFYNHPLHFVFNDTKLDAMLEEFKKGKSHLAIVQRVNNEGEGDPFYEVLGIVTLEDVIEEIIKSEILDE
notes: Bateman module (CBS1 and CBS2) of CNNM2, purified; theoretical mass of the monomer printed as 17.72 kDa; also called Bateman module of CNNM2

Experiments:
CNNM2BAT = target: B1; assay: SEC; Superdex 200 Increase 10/300 GL, 1 mg/mL protein, 0.5 ml/min, 50 mM Hepes pH 8.5, 200 mM NaCl, 1 mM MgCl2, 1 mM TCEP; masses from a calibration line; conditions: both partners purified
[1] = target: the molecule itself; assay: as above

| stoichiometry N (CNNM2BAT) | Binder | stoichiometry N [1] |
| --- | --- | --- |
| 1 ARL15 per CNNM2BAT (2:2) | Pure ARL15 (gel filtration) (natural protein, UniProt Q9NXU5 1-204, looked up, ARL15, purified; theoretical mass of the monomer printed as 19.57 kDa; The printed theoretical mass of 19.57 kDa is below that of whole ARL15, so a shortened construct is likely) MSDLRITEAFLYMDYLCFRALCCKGPPPARPEYDLVCIGLTGSGKTSLLSKLCSESPDNVVSTTGFSIKAVPFQNAILNVKELGGADNIRKYWSRYYQGSQGVIFVLDSASSEDDLEAARNELHSALQHPQLCTLPFLILANHQDKPAARSVQEIKKYFELEPLARGKRWILQPCSLDDMDALKDSFSQLINLLEEKDHEAVRM | 2 |
| – | B1 | 2 |
